Assay [1] concerns the target T1, mouse MerTK on mouse macrophages (mouse, UniProt Q60805 19-994).
T1 sequence (looked up): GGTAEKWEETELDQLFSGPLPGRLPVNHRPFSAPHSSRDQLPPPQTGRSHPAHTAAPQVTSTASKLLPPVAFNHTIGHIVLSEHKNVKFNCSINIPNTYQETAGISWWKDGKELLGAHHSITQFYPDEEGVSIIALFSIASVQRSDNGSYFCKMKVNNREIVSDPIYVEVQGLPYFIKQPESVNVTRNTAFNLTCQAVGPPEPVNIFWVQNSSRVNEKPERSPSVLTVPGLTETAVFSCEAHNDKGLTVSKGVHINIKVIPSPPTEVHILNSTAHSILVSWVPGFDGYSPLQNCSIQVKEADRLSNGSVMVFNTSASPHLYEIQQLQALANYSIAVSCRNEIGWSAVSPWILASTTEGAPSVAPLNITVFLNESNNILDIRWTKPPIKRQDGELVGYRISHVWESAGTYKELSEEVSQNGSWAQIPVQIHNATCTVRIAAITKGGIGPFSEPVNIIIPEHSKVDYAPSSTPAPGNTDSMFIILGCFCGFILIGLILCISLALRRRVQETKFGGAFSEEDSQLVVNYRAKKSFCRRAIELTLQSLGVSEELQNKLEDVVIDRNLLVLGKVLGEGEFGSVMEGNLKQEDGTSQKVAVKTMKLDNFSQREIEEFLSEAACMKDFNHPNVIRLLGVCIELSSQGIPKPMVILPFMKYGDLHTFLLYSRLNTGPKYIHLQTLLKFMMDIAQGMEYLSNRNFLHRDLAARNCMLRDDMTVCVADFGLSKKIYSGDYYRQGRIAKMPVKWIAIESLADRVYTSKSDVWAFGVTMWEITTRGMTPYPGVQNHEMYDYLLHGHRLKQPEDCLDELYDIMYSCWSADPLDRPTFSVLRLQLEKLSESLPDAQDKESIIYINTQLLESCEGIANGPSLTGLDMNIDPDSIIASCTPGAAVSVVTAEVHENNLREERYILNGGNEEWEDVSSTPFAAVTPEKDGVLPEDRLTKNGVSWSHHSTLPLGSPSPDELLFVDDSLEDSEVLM
Description: cell-based or functional assay.

Assay [2] has as its target T2, rat MerTK (rat, UniProt P57097 23-496, limits assumed).
T2 construct: Soluble analyte in SPR
T2 sequence (looked up): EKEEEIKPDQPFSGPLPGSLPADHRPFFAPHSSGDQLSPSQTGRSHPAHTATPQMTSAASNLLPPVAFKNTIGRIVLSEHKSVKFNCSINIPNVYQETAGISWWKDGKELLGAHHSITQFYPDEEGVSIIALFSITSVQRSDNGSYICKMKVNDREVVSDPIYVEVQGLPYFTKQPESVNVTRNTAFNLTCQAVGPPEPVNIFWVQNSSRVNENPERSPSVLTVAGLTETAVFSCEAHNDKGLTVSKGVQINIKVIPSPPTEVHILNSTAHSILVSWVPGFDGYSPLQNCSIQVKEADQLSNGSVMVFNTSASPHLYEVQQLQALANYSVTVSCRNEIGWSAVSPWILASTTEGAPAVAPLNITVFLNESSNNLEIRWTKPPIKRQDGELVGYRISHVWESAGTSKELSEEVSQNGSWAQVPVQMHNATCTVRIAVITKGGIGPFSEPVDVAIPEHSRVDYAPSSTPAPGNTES
As to the kind of experiment: SPR BIAcore T200, Ab captured, 37C. (In SPR one partner is held on a chip, and binding of the other changes the refractive index at the surface.)

Assay [3] has as its target T3, cynomolgus monkey MerTK (cynomolgus monkey, UniProt A0A2K5V1H9 32-505).
T3 construct: Soluble analyte in SPR; also called Cyno MerTK
T3 sequence: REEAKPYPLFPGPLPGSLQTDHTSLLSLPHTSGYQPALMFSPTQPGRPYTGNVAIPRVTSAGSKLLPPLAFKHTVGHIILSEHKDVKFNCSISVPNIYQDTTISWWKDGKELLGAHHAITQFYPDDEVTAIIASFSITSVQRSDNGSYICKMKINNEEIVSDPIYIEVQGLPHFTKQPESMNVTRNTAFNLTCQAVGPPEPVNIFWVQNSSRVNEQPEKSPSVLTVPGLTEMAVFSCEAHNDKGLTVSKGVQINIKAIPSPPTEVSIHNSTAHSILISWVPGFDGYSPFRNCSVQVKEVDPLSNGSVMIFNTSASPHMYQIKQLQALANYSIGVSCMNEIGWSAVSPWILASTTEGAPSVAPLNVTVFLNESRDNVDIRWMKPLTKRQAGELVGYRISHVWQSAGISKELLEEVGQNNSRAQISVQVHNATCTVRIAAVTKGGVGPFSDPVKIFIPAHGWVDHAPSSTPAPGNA
Description: SPR BIAcore T200, Ab captured, 37C.

Consider one molecule from US20220135701A1 (Genentech, published 2022).

B1: h10F7.v16 (antibody, V domains shown)
VH: EVQLVESGGGLVQPGGSLRLSCAVSGFSLSGYAMSWVRQAPGKGLEYIGVISSSGSSYYPSWAKGRFTISKDNSKNTLYLQMGSLRAEDMAVYYCARVQFYVGYAVYGYGIIDRLDLWGQGTLVTVSS
VL: DIVLTQSPDSLAVSLGERATINCQSSKSVYNNNWLSWYQQKPGQPPKLLIYRASTLESGVPDRFSGSGSGTDFTLTISSLQAEDVAVYFCAGGYSSSSSANAFGGGTKVEIK
notes: Humanized, human IgG1; also called 10F7 Fully Humanized; 10F7 Humanized polished mAb
Turning to B1, the “IC50 (nM), efferocytosis by mouse macrophages, Average” value in assay [1] is 0.91 nM. Also, the results for the Kd in assay [2] and in assay [3] were 3.2 nM and 2.1 nM, respectively.
